Reference: the nanobody polyreactivity screen of Harvey et al. (2022)

Assay: yeast display, Sf9 membrane polyspecificity reagent, FACS + sequencing; frameworks hold sequencing errors
Procedure, shortened: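 Genes from sorted yeast were amplified by colony PCR, read by MiSeq 2 × 250 sequencing and filtered on CDR length. These cells carried a synthetic nanobody library in Saccharomyces cerevisiae BJ5465 and were sorted by FACS into low and high (top ~1%) gates on anti-HA and streptavidin fluorescence. Polyreactivity is labelled according to the gate of origin.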

Sequence | polyreactivity (PSR sort gate)
QVQHVESGGGLVQAGGSLRLSCAASGSTFLVYAMGWYRQAPGKERELVAAISGAGSTTYADSVKGRFTISRDNAKNTVYLQMNSMKPEDTAVSYCNARTVAIWSERYYWGQGTQVTVSS | low polyreactivity
QVQHVESGGGLVQAGGSLRLSCAASGSTFPGYAMGWYRQAPGKERELVAAISKRGGSTRYADSVKGRFTISRDNAINTVYLQMNSLKPEDTAVYYCAASYSYSGSGGGYWGQGTQVTVSS | high polyreactivity
QVQHVESGGGLVQAGGSLRLSCAASGSTFRYYTMGWYRQAPGKERELVADITIGGSTYYADSVKGRFTISRDNAKNTVYLQMNSLKPEDTAVYYCAARSTGGRIFATGVAYDYWGQGTQVTVST | low polyreactivity
QVQHVESGGGLVQAGGSLRLSCAASGSTFSLYAMGWSRQAPGKERELVAAIRGSGGSPYYADSVKGRFTISRDNAKNTVYLQMNTQTPEDSAVYYCAKKRYHGSNYGYDYWGQGTQVTVSS | high polyreactivity
QVQHVESGGGLVQAGGSLRLSCAASGSTFSQYAMGWYRQAPGKERELVAAITRGGRTYYADSVKGRFTISRDNAKNTVYLQMNSLKPEDTAVYYCAARGGYRLRYIPYVRYDYWGQGTQVTVSS | high polyreactivity
QVQHVESGGGLVQAGGSLRLSCAASGSTFTAYVMGWYRQAPGKERELVAAISRSGGRTYYADSVKGRFTISRDNAKNTVYLQMNSLKPEDTAVYYCAARSGPLAYDYWGQGTQVTVSS | high polyreactivity
QVQHVESGGGLVQAGGSLRLSCAASGSTFVGNAMGWYRQAPGKERELVADITSGGSTNYADSVKGRFTISRDNAKNTVYLQMNSLKPEDTAVYYCAAVYLWSQRREFWGQGTQVTVSS | low polyreactivity
QVQHVESGGGLVQAGGSLRLSCAASGSTFWYAMGWYRQAPGKERELVAAITARGGRTYYADSVKGRFTISRDNAKNTVYLQMNSLKPEDTAVYYCARLSYAGGQWIIAKYDYWGQGTQVTVSS | high polyreactivity
QVQHVESGGGLVQAGGSLRLSCAASGSTFWYNAMGWYRQAPGKERELVAAISYSGGRTYYADSVKERFTISRDNAKNTVYLQMNSLKPEDTAVYYCNAASRYGGDYWGQGTQVTVSS | low polyreactivity
QVQHVESGGGLVQAGGSLRLSCAASGSTFYYYAMGWYRQAPGKERELVAAIRSDVSTNYADSVKGRFTISRDNAKNTVYLQMNSLKPEDTAVYYCAARFPWNRVTYDYWGQGTQVTVSS | low polyreactivity
QVQHVESGGGLVQAGGSLRLSCAASGSTIRRNAMGWYRQAPGKERELVAAISGTGGRTYYADSVKGRFTISRDNAKNTVYLQMNSLKPEDTAVYYCNAAGRFYWGQGTQVTVSS | high polyreactivity
QVQHVESGGGLVQAGGSLRLSCAASGSTLGGYAMGWSRQAPGKERELVAAISGSGGSTYYADSVKGRFTISRDNAKNSVYLQMNSLKPEDTAVYYCNAAVLGGIYRYYDYRYDYWGQGTQLTVSS | low polyreactivity
QVQHVESGGGLVQAGGSLRLSCAASGSTLSRYVMGWDRQAPGKERELVASISWTGTRTYYADSVKGRFTISRDNAKNTVYLQMNSLKPEDTAVYYCNAVSRGGRLYDYWGQGTQVTVSS | high polyreactivity
QVQHVESGGGLVQAGGSLRLSCAASGYTFFANAMGGYRQAPGKERELVAGINRSGSTYYADSVKGRFTISRDNAKNTVYLQMNSLKPEDTAVYYFATAWHRGVRGRTSGAFDYWGQGTQVTVSS | high polyreactivity
QVQHVESGGGLVQAGGSLRLSCAATGTTFDTYAMGWNRQATGKERELVAAINSGGGTNYADSVKGRFTIARDNAKNTVYLQMNSLKPEVTAVYYCATDIRRDAGGGDFDYWGQGTQVTVSS | low polyreactivity
QVQHVESGGGLVQAGGSLRLSCADSGSTFWFNAMGWYRQAHGKERELVAAIDWSDGSTYYADSVKGRFTISRDNAKNTVYLQMNSLKPEDTAVYYCAADHRYSARRSVPTLYDYWGQGTHVTVSS | low polyreactivity
QVQHVESGGGLVQAGGSLRLSCASSGRIIGKYVMAWYRQAPGKERELVAGISWSAGSTYYADSVKGRFTISRDNAKNTVYLQMNSLKPEDTAVYYCAAGLEGVYDYWGQGTQVTVSS | low polyreactivity
QVQHVESGGGLVQAGGSLRLSCDASGITFGHYTMGWYRQAHGKEREFVAAISWSGGSTYYADSVKGRFTISRDNAKNTVYLQMNSLKPEYTAVYYCNRVKPVIASYDSDYWGQGTQVTVSS | low polyreactivity
QVQHVESGGGLVQAGGSLRLSGAASGSTFTYNTMGWYRQAPGKERELVAAITTYGGNTYYADSVKGRFTISRDNAKNTVYLQMNSLKPEDSAVYYCAARVIFGDFDYWGQGTQVTVSS | low polyreactivity
QVQHVESGGGLVQAGGSLRLTCAASARIFRYYPMGRYRPAPGKERELVAGITTGGGSTYYADSVKGRFTISRENAKNTVYLQMNSLKPEDTAVFYCAARYYTTYYWGQGTQVTVSS | high polyreactivity
QVQHVESGGGLVQAGGSLSLSCAASGRTILWNAMGWYRQAPGKERELVAAITSGGRTYYADSVKGRFTISRDNAKNTVYLQMNSLIPEDTAVYYCAASTVYWSTVNSQARFNYWGQGTQVTVSS | high polyreactivity
QVQHVESGGGLVQAGGSLSLSCADSGITFYRYAMGCDRQAPAKERELVDRISQIGGSTYYADSVKGRFTISRDNAKNTVYLQMNSLKPEDTAVYYCNARVRYSTVTYLRKYYYWGQGTQVTVSS | high polyreactivity

Sequence | polyreactivity (PSR sort gate)
QVQHVESGGGLVQAGVSLRLSCAASGSIFVNNGMGWYRQAPGKERELVAAIRLSTGSTYYADSVKGRFTISRDNAKNTVYLQMNSLKPEDTAVYYCATRSYIWGNWGQGTQVTVSS | high polyreactivity
QVQHVESGGGLVQARGSLRLSCAASGSIFWYNAMGWYRQAPGTVRELVAAINWSGGSTFYADSVKGRFTISRDNAKNTVYLQMNSLKPEDTAVDYCAADDWYTGYDYWGQGTQVTVSS | high polyreactivity
QVQHVESGGGLVQAVGSLRLSCAASGNIFDRNAMGWYRQARGKERELVAAISRSGGRTYYADSVKGRFTISRDNAKNTVYLQMNSLKPEDTAVYYCNRRYRKYSSAKYDYWGQGTQVTVSS | high polyreactivity
QVQHVESGGGLVQEGGSLRLSCAASGRIFRTNAMVWYRQAPGKERELVAAITRDGTTNYADSVKGRFTISRDNAKNTVYLQMNSLIPEDTAVYYCNARYRRSPIKFTYVRYVYEYDYWGQGTQVTVSS | low polyreactivity
QVQHVESGGGSVQAGGRLRLSCAASGSTFIEYAMGWYRKAPGKERELVAGITTSSGRTSYADSVKGRFTISRDNAKNTVYLQMNSLKPEDTAVYYCAAKSYSDYDYWGQGTQVTVSS | low polyreactivity
QVQHVESGGGVVQAVGSLRLSCAASGYIFRTNAMGWYRQARGKERELVAAITRSGGRTYYADSVKGRFTISRDNAKNTVYLQMNSLKPEDTAVYYCAAGGRKPVITGDYWGQGTQVTVSS | high polyreactivity
QVQHVESGRGFVKAGCSLRLSCASSGSIFVKNAMGRYRQAPGKERELVARITYSGGSTYYADSVKGRFTISRDNAKNTVYLQMNSVKPEDNAGYYCARTRKIAGYYYWGQGTQVTESS | high polyreactivity
QVQHVESRGCLLQAGGSLRLSCAASGITFRYYTMGWYRQAPGKESELVAAITWSGSSTYYAVSVKGRFTISRDNAKNTVYLQMNSLKPEHTAVYYCAKPYHQRSAKVDYWGQGTQVTVSS | low polyreactivity
QVQHVESRGGIVQAGGSLRLSCAASGFTFAYYAMGRYRQAPGKERELVAAINYSGGSTYYADSVKGRFTISRDNAKNTVYLQMNSLKPEDTAVYYCATEYYRYDGSSYDYWGQGTQVTVSS | high polyreactivity
QVQHVESRGGLVQAGGSLRLSCAASGFISRAYAMGWYRQAPGKERELVAAISVRVGSTYYADSVKGRFTISRDNAKNTVYLQMYSLKPEDTAVYYCAALRPWPRYDYWGQGTQVTVSS | high polyreactivity
QVQHVESRGGLVQAGGSLRLSCAASGFTFYYNAMGWYRQAPVKERELVAIRFRGGNTYYADSVKGRFTISRDNAKNTVYLQMNSLKPEDTAVYYCNADDRGSTYVDFVYWGQGTQVTVSS | low polyreactivity
QVQHVESRGGLVQAGGSLRLSCAASGRIFPRYAMGWYRQAPGKERELVAAISWSGGSTYYADSVKGRFTISRDNAKNTVYLQMNSLKPEDTAVYYCAARGRLRYSGSIIYYWGQGTQVTVSS | high polyreactivity
QVQHVESRGGLVQAGGSLRLSCAASGRIFTGYAMGWYRQAPGKERELVAAITASGGNTYYADSVKGRFTISRVNAKNTVYLQMNSLTPEDTAVFYCAADFYYYKIQYAYWGQGTQVTVSS | low polyreactivity
QVQHVESRGGLVQAGGSLRLSCAASGRSFSDYAMGGYRQAAGKERELVASINSGGSTYYADSVKGRFTISRDKAKNTVYLHMNSLKPEDTAVYYCAAGFQLVKGSLSGRAAYYYWGQGTQVTVSS | high polyreactivity
QVQHVESRGGLVQAGGSLRLSCADSGSIFRAYAKGWYIQAPGKERELVADISRSGGSTYYADSVKGRFTISRDNANNTVYLQMNRLNPEDTAVYYCAAVFYLYSNLYGEYEYWGQGTQVTLSS | low polyreactivity
QVQHVESRRGLVQAGGSLRLSCAASGFTFYSYAMGWYRQAPGKEREFVAAGSTYYADSVKGRFTISRDNAKNTDYLQMNSLKPEDTAVYYCATDPIGGWTRPQRYGDDYWGQGTQVTVSS | low polyreactivity
QVQHVESVGGLVQAGGSLRLSCAASGSIFEYNAMGWYRQAPGKERELVAAISWSSGTTYYADSVKGRFTISRDNAKNTVYLQMNSLKPEDTAVYYCNAGRYGKDSDYWGQGTQVTVSS | low polyreactivity
QVQHVVSVGGLVQAGGSLRLSCAASGSTFLLNTMGWYRQAPGKERELVAAISSITGDTYYADSVKGRFTISRDNAKNTVYLQMNSLKPEDTAVYYCAAYLSETRPYLYDYWGLGTQVTVSS | low polyreactivity
QVQIEESGGGLVQAGGSLRLICAASGRIFLPYVMGWYRQAPGKERELVATITFGRSTTYADSVKGRFTISRDNAKNTVYLQMNCLKPEDTAFYYCNALSALAVEDGYWGHGTQVTVSS | low polyreactivity
QVQIEESGGGLVQAGGSLRLSCAASGLIFGSYVMGWYRQAPGKERELVAAITVRTGTTYYADSVKGRFTISRDNAKNTVYLKMNSLKPEDTAVYYCALRYRPKYGYWGQGTQVTVSS | high polyreactivity
QVQIEESGGGLVQAGGSLRLSCAASGSIFGKYAMGWYRQAPGKERELVAAITWSGGYTRYADSGKGRFTISRDKAKNTVYLLMNSLKPEDTAVYYCADPSTESKYYYWGQGTQVTVSS | high polyreactivity
